A word on the Kd: it is the equilibrium constant for the complex coming apart. As usually defined, the koff is a measure of how fast the partners let go of each other. High values mean a short-lived complex, low ones a long-lived complex. Usually kon stands for the rate constant with which the complex forms. A higher kon goes with faster complex formation.

Kd, koff and kon data for one molecule are collected here from US20240174764A1 (Memorial Sloan Kettering, published 2024).

Test [1] deals with T1, BTM protein (synthetic fusion protein of the highly conserved extracellular portion of MUC16^c57-114 fused to … (human, UniProt Q8WXI7 14394-14451)).
T1 construct: domain: highly conserved extracellular portion of MUC16^c57-114; also called MUC16 BTM protein; Muc16 BTM protein; not shown: human Fc (pFUSE backbone)
T1 sequence: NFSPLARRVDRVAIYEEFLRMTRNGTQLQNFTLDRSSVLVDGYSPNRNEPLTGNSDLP
The test is described as follows: SPR (BiaCore X100), His-tagged BiTED on NTA chip, BTM as analyte, 1:1 model. On the procedure:
(§1) Kinetic Analysis of BiTEDs binding to MUC16^ecto. The kinetic analysis of EXT170-8 BiTEDs and Muc16 BTM protein (55mer highly conserved ectodomain region of MUC16) was performed on a BiaCore X100 instrument loaded with an NTA sensor chip. EXT170-8 BiTED comprises the amino acid of SEQ ID NO: 89 and the leader sequence of SEQ ID NO: 93.
(§2) The raw data was analyzed using the kinetic model 1:1 binding by Biacore X100 evaluation software.
MUC16^ecto-BiTEDs were purified and confirmed by SDS-page (FIG. 1(c)). To determine the binding affinity of BiTEDs to MUC16^ecto, a previously validated BTM protein (a synthetic fusion protein consisting of the highly conserved extracellular portion of MUC16^c57-114 fused to a human Fc backbone pFUSE) was used, and kinetic analysis was performed using surface plasmon resonance.
For orientation: Surface plasmon resonance follows binding to a sensor surface in real time, without labels.

Test [2] deals with T1, BTM protein (synthetic fusion protein …). Kind of test: SPR, BiaCore X100, His-tagged EXT170-8 BiTEDs immobilised on an NTA sensor chip, MUC16 BTM protein injected at 35.625 to 570 nM, 1:1 binding model [d]. On the procedure:
as §1, §2

B1: EXT170-8 BiTED (MUC16^ecto-specific Bispecific T-cell engaging diabody, Clone 8 (LH)/anti-CD3 bispecific antibody) (bispecific antibody)
chain: DIQLTQSPSAVSASVGDRVTITCRASQDVSKWLAWYQQKPGKAPRLLISAASGLQSWVPSRFSGSGSGTEFTLSISSLQPEDFATYYCQQANSFPWTFGQGTKVEIKRSRGGGGSGGGGSGGGGSLEMAQVQLQQWGAGLLKPSETLSLTCAVYGGSFSGYYWSWIRQPPGKGLEWIGEINHSGSTNYNPSLKSRVTISVDTSKNQFSLKLSSVTAADTAVYYCARQSYITDSWGQGTLVTVSSTSGGGGSDVQLVQSGAEVKKPGASVKVSCKASGYTFTRYTMHWVRQAPGQGLEWIGYINPSRGYTNYADSVKGRFTITTDKSTSTAYMELSSLRSEDTATYYCARYYDDHYCLDYWGQGTTVTVSSGEGTSTGSGGSGGSGGADDIVLTQSPATLSLSPGERATLSCRASQSVSYMNWYQQKPGKAPKRWIYDTSKVASGVPARFSGSGSGTDYSLTINSLEAEDAATYYCQQWSSNPLTFGGGTKVEIKHHHHHH
notes: The molecule was His-tagged in SPR and biotinylated in ELISA; also called MUC16^ecto-BiTEDs; EXT170-8 BiTEDs
B1 yielded a Kd in test [1] of 69.9 nM. In test [2], this molecule registered a koff of 0.0157 s⁻¹ and a kon of 224000 M⁻¹ s⁻¹.
